Source: publication PMC9278858

Molecular target: Rpc160-HTP (largest subunit of RNAPIII, C-terminally His6–TEV–Protein A tagged) (S. cerevisiae) (UniProt P04051)
Assay: affinity purification with mass spectrometry; Rpc160-HTP as bait; as a3 but lysate treated with RNase A (20 μg/ml, 20 min at 25°C); label-free quantitative MS

Sequence of UniProt P04051 (P04051 whole entry): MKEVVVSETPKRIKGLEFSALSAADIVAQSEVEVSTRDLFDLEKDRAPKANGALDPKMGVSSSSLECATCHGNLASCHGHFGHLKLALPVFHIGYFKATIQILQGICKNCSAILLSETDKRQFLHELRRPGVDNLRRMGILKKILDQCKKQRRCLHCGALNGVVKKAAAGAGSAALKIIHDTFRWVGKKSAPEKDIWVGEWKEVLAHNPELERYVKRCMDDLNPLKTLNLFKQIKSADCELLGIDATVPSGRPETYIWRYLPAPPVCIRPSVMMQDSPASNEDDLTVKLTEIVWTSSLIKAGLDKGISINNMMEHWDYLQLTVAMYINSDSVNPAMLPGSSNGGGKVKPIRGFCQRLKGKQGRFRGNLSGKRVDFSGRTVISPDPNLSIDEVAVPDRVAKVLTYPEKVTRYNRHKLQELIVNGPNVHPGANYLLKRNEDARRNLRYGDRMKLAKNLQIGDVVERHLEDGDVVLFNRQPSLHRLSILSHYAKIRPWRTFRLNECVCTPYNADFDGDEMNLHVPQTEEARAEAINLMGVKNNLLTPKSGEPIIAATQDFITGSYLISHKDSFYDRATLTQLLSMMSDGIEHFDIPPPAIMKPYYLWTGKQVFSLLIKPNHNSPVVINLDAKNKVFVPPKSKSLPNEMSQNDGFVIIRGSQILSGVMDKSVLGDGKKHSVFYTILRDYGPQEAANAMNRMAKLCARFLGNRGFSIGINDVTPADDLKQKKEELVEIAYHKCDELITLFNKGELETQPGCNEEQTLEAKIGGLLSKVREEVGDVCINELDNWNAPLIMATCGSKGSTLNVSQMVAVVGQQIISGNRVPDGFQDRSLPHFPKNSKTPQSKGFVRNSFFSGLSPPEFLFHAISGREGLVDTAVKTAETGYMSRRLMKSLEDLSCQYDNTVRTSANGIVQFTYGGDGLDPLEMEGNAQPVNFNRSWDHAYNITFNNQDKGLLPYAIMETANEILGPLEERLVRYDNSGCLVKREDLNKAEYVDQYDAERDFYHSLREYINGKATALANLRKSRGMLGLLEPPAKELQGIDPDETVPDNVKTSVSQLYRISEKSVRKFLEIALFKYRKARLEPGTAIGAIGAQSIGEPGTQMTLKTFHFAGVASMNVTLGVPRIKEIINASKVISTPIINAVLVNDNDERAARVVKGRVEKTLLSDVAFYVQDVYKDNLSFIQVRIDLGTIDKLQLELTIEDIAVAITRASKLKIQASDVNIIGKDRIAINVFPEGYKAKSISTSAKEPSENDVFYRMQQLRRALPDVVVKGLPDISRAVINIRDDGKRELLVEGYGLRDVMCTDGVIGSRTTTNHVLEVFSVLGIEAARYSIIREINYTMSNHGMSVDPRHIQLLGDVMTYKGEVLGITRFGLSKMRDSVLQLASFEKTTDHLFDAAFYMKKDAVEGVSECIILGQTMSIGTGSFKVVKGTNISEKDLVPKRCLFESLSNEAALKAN

## Sen1 (untagged, in cells expressing Rpc160-HTP, SEN1 background) (from UniProt Q00416 1-2231) (natural protein)
  fold decrease of RNAPIII-bound Sen1 with RNase A treatment against no treatment: 2 fold
